Values of other authors as cited in article PMC8471248.

Target: cell-surface GRP78 (Homo sapiens) (UniProt P11021)
Sequence of UniProt P11021 (P11021 19-654): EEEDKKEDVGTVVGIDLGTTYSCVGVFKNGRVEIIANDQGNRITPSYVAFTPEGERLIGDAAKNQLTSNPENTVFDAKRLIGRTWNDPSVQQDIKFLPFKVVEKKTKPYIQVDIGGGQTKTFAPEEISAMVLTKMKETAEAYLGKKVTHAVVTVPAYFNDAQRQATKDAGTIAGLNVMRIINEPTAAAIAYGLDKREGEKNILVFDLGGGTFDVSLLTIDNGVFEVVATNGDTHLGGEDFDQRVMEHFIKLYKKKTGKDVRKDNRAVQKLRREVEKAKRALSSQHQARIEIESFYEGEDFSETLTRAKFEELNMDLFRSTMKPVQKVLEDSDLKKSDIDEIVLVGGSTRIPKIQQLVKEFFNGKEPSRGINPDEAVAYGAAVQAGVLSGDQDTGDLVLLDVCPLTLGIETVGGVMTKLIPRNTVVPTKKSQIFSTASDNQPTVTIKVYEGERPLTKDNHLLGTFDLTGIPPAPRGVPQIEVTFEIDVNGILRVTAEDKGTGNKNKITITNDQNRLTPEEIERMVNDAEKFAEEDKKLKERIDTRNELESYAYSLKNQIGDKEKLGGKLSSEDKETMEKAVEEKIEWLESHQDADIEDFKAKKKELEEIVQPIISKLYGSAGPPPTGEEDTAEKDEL

Activated alpha 2-macroglobulin (from UniProt P01023)
Kd: 0.1 nM
